In PMC3467058 (Nucleic Acids Research, 2012):

Target: T1, Aeropyrum pernix aEF1α (residues 7-437), C-terminally His-tagged, wild type (Aeropyrum pernix, UniProt Q9YAV0 7-437)
T1 sequence: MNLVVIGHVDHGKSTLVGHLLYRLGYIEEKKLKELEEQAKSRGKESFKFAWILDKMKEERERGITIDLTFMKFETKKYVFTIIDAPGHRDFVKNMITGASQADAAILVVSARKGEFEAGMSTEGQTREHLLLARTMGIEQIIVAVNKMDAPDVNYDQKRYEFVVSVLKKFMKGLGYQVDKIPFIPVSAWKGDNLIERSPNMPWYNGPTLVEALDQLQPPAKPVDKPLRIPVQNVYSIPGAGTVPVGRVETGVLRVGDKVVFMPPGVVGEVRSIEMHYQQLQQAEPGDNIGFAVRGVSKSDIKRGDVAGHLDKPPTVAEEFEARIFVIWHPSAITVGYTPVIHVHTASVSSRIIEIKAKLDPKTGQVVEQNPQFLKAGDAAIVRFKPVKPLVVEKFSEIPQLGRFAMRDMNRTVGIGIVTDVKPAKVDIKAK
Assay: pull-down

binding result: binds
B1: archaeal RF1 (aRF1), archaeal class I release factor, Aeropyrum pernix (natural protein)
chain: MSQGRLEERLTISKRELARLLKELKKWSAPATVLLSLYIPPGRPLSDVMTLLRQEYSITDNIKLKRTRQAVKRALSAAMDRLQMLTSTPPNGLVLFCGEDMSTGKFECFMFSPPEPIRVFYYRTDKRFITDFLEDMVEDNNAIGIIIVERDQATIGLLKGARLEVLKELEGFVPGKHKMGGQSQRRYERIIEQMVDEFFKKVGEEASNLLVPLAEKGVLKGVIVAGPGLAKQEFVEGNYLDYRLKKILAPELVDVAYQGLQGLKEAVMKAEKVVEAQMYRDAVNAMEEFKLHLAKGTGMIVYGEKDVEAALEMGAVKTLLIHESREDLEEWVEKAKSSGAQVIVVPESLAEAEWFLKTFGGLAGILRFRISTV
